Experimental data as given in patent US20200339702A1 (ULTRAHUMAN THIRTEEN, published 2020).
Positions count from the first letter of the chain named. Names and notes keep the numbering of the source. Values belong to the binder of their own block, whether it stands above or below them.

Experiments:
[1] = biological target: T1, rhesus monkey ERBB3 His tag, monomeric (rhesus monkey (Macaca mulatta), UniProt P21860 20-643 (human entry), limits assumed); experiment: SPR (Biacore), captured IgG, monomeric ERBB3-His analyte
T1 chain: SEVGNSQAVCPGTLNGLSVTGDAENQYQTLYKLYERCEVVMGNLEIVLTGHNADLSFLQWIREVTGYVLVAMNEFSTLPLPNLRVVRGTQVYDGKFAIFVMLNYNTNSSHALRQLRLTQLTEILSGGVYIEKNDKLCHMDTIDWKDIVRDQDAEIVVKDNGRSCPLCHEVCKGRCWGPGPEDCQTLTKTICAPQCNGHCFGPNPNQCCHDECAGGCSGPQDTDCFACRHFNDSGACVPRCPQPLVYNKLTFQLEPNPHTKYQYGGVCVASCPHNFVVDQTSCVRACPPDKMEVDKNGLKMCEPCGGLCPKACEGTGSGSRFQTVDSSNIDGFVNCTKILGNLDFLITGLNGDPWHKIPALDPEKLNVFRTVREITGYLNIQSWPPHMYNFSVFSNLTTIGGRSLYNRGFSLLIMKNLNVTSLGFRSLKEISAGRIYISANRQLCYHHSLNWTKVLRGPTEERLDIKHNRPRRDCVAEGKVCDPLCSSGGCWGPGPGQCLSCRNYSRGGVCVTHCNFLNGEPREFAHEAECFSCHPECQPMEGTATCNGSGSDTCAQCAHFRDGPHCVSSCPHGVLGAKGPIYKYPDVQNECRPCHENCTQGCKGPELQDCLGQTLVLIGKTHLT
Procedure: (§1) Affinity (KD) of purified IgGs was determined via SPR with antigen in-solution on a Biacore® 3000 (GE). A mouse anti-human antibody (CH1 specific) was immobilized on a CM5 Sensor Chip to a level of 2000 RU in acetate buffer at pH 4.5 using amine coupling following the Wizard instructions for two channels. One channel was used for background signal correction. The standard running buffer HBS-EP pH 7.4 was used. Regeneration was performed with a single injection of 10 μl of 10 mM Glycine at pH 1.5 at […]. IgG samples were injected for 2 minutes at 50 nM at 30 μl/min followed by an off-rate of 60 seconds. The monomeric antigen (human ERBB3 His tagged or rhesus monkey ERBB3 His tag) was injected in two fold serial dilutions from 3 nM down to 0.2 nM, for 2 minutes at 30 μl/min followed by an off-rate of 300 seconds. The obtained sensorgrams were analysed using the Biacore® 3000 evaluation (BlAevaluation) software. The KD was calculated by simultaneous fitting of the association and dissociation phases to a 1:1 Langmuir binding model.
(§2) Biacore® analyses of binding affinity were performed for all IgGs to solution-phase, monomeric human and rhesus ERBB3 proteins.

[2] = biological target: T2, human ERBB3 His tagged, monomeric (human, UniProt P21860 20-643, biotinylated in the Alphascreen assays (sites not given)); experiment: as above
T2 construct: Used unbiotinylated as Biacore analyte and biotinylated in Alphascreen; treated as one molecule; also called human ERBB3-His (Acrobiosystems); biotinylated monomeric human ERBB3
Procedure: as §1, §2

[3] = biological target: T3, human ERBB3 on transiently transfected HEK-293 cells (human, UniProt P21860 20-1342); experiment: flow cytometry, human ERBB3-transfected HEK-293
T3 construct: also called human ERBB3+ HEK-293 cells
Procedure: (§3) Purified IgGs were tested in FACs for binding to human and rhesus monkey ERBB3 expressed on transiently transfected HEK-293 cells and HEK-293 wild-type cells. The IgG samples were titrated in three-fold serial dilutions starting at 500 nM to 0.008 nM. Binding of IgGs was detected with a mouse anti-human IgG conjugated to FITC. Results were analyzed by examining the Mean Fluorescence Intensity (MFI) of 10000 cells per sample in the BL-1 channel detector of a flow cytometer (Attune™ NxT Acoustic Focusing Cytometer, Invitrogen/ThermoFisher Scientific).
(§4) Antibodies to ERBB3 were analysed for concentration-dependent binding at the cell surface via flow cytometry. HEK-293 cells were transiently transfected with either human or rhesus ERBB3 full-length cDNAs. Anti-ERBB3 IgGs and an isotype control were then all tested in IgG1null format, over a concentration range of 500-0.008 nM for binding to human (FIG. 5A) and rhesus (FIG. 5B) transfected cells.

[4] = biological target: T4, rhesus ERBB3 on transiently transfected HEK-293 cells (rhesus monkey (Macaca mulatta), UniProt P21860 20-1342 (human entry)); experiment: flow cytometry, rhesus ERBB3-transfected HEK-293
T4 construct: also called rhesus ERBB3+ HEK-293 cells
T4 chain: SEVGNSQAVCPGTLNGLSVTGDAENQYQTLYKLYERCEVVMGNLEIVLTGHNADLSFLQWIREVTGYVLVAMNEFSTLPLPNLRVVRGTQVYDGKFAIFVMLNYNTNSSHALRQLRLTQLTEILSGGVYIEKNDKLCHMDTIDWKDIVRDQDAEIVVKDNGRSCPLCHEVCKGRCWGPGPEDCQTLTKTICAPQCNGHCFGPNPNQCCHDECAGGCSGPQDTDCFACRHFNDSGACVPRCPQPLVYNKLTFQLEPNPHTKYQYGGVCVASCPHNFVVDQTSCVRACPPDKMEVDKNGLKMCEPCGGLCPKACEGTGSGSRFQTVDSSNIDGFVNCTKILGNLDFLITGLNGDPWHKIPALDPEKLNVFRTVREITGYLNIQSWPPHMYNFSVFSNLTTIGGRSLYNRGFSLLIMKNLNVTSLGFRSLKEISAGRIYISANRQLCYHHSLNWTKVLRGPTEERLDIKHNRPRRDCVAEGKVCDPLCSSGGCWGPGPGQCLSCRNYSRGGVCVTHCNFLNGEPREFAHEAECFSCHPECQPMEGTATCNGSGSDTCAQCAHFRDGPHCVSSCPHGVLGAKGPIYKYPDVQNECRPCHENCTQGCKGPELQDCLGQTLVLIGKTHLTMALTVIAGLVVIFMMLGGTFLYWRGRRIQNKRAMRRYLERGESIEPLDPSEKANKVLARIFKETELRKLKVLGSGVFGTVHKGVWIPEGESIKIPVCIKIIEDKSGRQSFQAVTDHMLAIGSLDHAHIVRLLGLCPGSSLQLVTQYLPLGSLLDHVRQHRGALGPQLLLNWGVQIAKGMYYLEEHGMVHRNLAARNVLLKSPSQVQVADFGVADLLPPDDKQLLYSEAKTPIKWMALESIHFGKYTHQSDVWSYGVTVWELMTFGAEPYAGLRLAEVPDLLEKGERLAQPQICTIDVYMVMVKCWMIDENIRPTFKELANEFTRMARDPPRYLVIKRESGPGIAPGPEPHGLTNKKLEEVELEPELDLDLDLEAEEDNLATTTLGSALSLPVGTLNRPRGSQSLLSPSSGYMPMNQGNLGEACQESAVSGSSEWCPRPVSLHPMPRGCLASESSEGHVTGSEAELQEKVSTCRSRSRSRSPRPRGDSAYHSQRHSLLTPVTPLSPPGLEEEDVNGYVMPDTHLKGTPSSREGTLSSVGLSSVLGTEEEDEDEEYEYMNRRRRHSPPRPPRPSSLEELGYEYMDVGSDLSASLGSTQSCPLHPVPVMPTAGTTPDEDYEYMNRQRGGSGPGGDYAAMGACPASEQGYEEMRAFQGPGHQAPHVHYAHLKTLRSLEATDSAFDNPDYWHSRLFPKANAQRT
Procedure: as §3, §4

Kd [1]: 0.65 nM
koff [1]: 0.0018 s⁻¹
kon [1]: 2.7e+06 M⁻¹ s⁻¹
Kd [2]: 0.19 nM
koff [2]: 0.0017 s⁻¹
kon [2]: 9.3e+06 M⁻¹ s⁻¹
maximum MFI, fold over isotype control background [3]: > 20 fold
maximum MFI, fold over isotype control background [4]: > 20 fold
B5: 17H10 IgG1null (antibody, V domains shown)
VH: QVQLVESGGGLVKPGGSLRLSCAASGFTFSDYGMSWIRQAPGKGLEWVSTISDGGSYTYYADSVKGRFTISRDNAKNSLYLQMNSLRAEDTAVYYCAREWGDYDGFDEWGQGTLVTVSS
VL: DIQMTQSPSSLSASVGDRVTITCRASQSISGYLSWYQQKPGKAPKLLIYAASTLQSGVPSRFSGSGSGTDFTLTISSLQPEDFATYYCLQYDSTPYTFGGGTKVEIK
notes: Human IgG1null and human Ckappa

Kd [1]: 0.51 nM
koff [1]: 0.006 s⁻¹
kon [1]: 1.2e+07 M⁻¹ s⁻¹
Kd [2]: 0.71 nM
koff [2]: 0.0041 s⁻¹
kon [2]: 5.8e+06 M⁻¹ s⁻¹
maximum MFI, fold over isotype control background [3]: > 20 fold
maximum MFI, fold over isotype control background [4]: > 20 fold
B8: MH5 IgG1null (antibody, V domains shown)
VH: B5 VH with G54S, Y57T, T58I, W100Y, E108Y
VL: B5 VL with G31S, T53S, Y96L
notes: Designer (Maximally Humanized) clone; Human IgG1null and human Ckappa

Kd [1]: 0.21 nM
koff [1]: 0.0047 s⁻¹
kon [1]: 2.2e+07 M⁻¹ s⁻¹
Kd [2]: 0.26 nM
koff [2]: 0.0029 s⁻¹
kon [2]: 1.1e+07 M⁻¹ s⁻¹
maximum MFI, fold over isotype control background [3]: > 20 fold
maximum MFI, fold over isotype control background [4]: > 20 fold
B9: MH4 IgG1null (antibody, V domains shown)
VH: B5 VH with G54S, T58I
VL: B5 VL with G31S, T53S, Y96L
notes: as for B8

Kd [1]: 2.1 nM
koff [1]: 0.037 s⁻¹
kon [1]: 1.7e+07 M⁻¹ s⁻¹
Kd [2]: 1.3 nM
koff [2]: 0.0081 s⁻¹
kon [2]: 6.1e+06 M⁻¹ s⁻¹
maximum MFI, fold over isotype control background [3]: > 20 fold
maximum MFI, fold over isotype control background [4]: > 20 fold
B12: 11H02 IgG1null (antibody, V domains shown)
VH: B5 VH with G54S, E108N
VL: B5 VL with S28I, G31S, T53S, Q55D, D92Y, Y96L
notes: as for B5

More lines, now with the values behind:

B1: 15G11 IgG1null (antibody, V domains shown)
VH: B5 VH with G54S, A61P, W100L, E108Y
VL: B5 VL with S28E, G31S, T53S, Q55D
notes: Human IgG1null (L234A, L235A, G237A) and human Ckappa
Kd [1]: 0.33 nM
koff [1]: 0.0011 s⁻¹
kon [1]: 3.3e+06 M⁻¹ s⁻¹
Kd [2]: 0.078 nM
koff [2]: 0.0012 s⁻¹
kon [2]: 1.6e+07 M⁻¹ s⁻¹
maximum MFI, fold over isotype control background [3]: > 20 fold
maximum MFI, fold over isotype control background [4]: > 20 fold

B2: MH2 IgG1null (antibody, V domains shown)
VH: B5 VH with G54S, T58I, E108F
VL: B5 VL with G31S, T53S, Y96L
notes: as for B8
Kd [1]: 0.23 nM
koff [1]: 0.0048 s⁻¹
kon [1]: 2e+07 M⁻¹ s⁻¹
Kd [2]: 0.27 nM
koff [2]: 0.0029 s⁻¹
kon [2]: 1.1e+07 M⁻¹ s⁻¹
maximum MFI, fold over isotype control background [3]: > 20 fold
maximum MFI, fold over isotype control background [4]: > 20 fold

B3: 15D10 IgG1null (antibody, V domains shown)
VH: B5 VH with S63N, E108F
VL: B5 VL with G31S, Y96L
notes: as for B1
Kd [1]: 0.54 nM
koff [1]: 0.0018 s⁻¹
kon [1]: 3.3e+06 M⁻¹ s⁻¹
Kd [2]: 0.14 nM
koff [2]: 0.0019 s⁻¹
kon [2]: 1.4e+07 M⁻¹ s⁻¹
maximum MFI, fold over isotype control background [3]: > 20 fold
maximum MFI, fold over isotype control background [4]: > 20 fold

B4: 15E02 IgG1null (antibody, V domains shown)
VH: B5 VH with G54S, S56T, Y57T, T58I, S63N, W100Y, E108Y
VL: B5 VL with G31S, T53S, Y96L
notes: as for B5
Kd [1]: 2.5 nM
koff [1]: 0.0095 s⁻¹
kon [1]: 3.7e+06 M⁻¹ s⁻¹
Kd [2]: 0.61 nM
koff [2]: 0.0039 s⁻¹
kon [2]: 6.3e+06 M⁻¹ s⁻¹
maximum MFI, fold over isotype control background [3]: > 20 fold
maximum MFI, fold over isotype control background [4]: > 20 fold

B6: MH1 IgG1null (antibody, V domains shown)
VH: B5 VH with G54S, T58I, W100L, E108Y
VL: B5 VL with G31S, T53S, Y96L
notes: as for B8
Kd [1]: 0.45 nM
koff [1]: 0.0056 s⁻¹
kon [1]: 1.3e+07 M⁻¹ s⁻¹
Kd [2]: 0.51 nM
koff [2]: 0.0035 s⁻¹
kon [2]: 6.8e+06 M⁻¹ s⁻¹
maximum MFI, fold over isotype control background [3]: > 20 fold
maximum MFI, fold over isotype control background [4]: > 20 fold

B7: 09H02 IgG1null (antibody, V domains shown)
VH: B5 VH with G33S, A61P, W100L, E108Y
VL: B5 VL with G31S, T53S, Y96L
notes: Human IgG1null and human Ckappa; also called 09HO2
Kd [1]: 0.25 nM
koff [1]: 0.0027 s⁻¹
kon [1]: 1.1e+07 M⁻¹ s⁻¹
Kd [2]: 0.43 nM
koff [2]: 0.0013 s⁻¹
kon [2]: 3.1e+06 M⁻¹ s⁻¹
maximum MFI, fold over isotype control background [3]: > 20 fold
maximum MFI, fold over isotype control background [4]: > 20 fold

B10: 15D03 IgG1null (antibody, V domains shown)
VH: B5 VH with G54S, T58I, E108H
VL: B5 VL with S28E, G31S, T53S, Y96L
notes: as for B5
Kd [1]: 0.26 nM
koff [1]: 0.0047 s⁻¹
kon [1]: 1.8e+07 M⁻¹ s⁻¹
Kd [2]: 0.26 nM
koff [2]: 0.003 s⁻¹
kon [2]: 1.1e+07 M⁻¹ s⁻¹
maximum MFI, fold over isotype control background [3]: > 20 fold
maximum MFI, fold over isotype control background [4]: > 20 fold

B11: 16B09 IgG1null (antibody, V domains shown)
VH: B5 VH with G33S, G54S, S56T, A61P, E108F
VL: B5 VL with S28E, G31S, Y96L
notes: as for B1
Kd [1]: 0.21 nM
koff [1]: 0.0027 s⁻¹
kon [1]: 1.3e+07 M⁻¹ s⁻¹
Kd [2]: 0.089 nM
koff [2]: 0.0014 s⁻¹
kon [2]: 1.6e+07 M⁻¹ s⁻¹
maximum MFI, fold over isotype control background [3]: > 20 fold
maximum MFI, fold over isotype control background [4]: > 20 fold
